Source: the supplement of paper PMC12042874
± gives the uncertainty stated by the source.

Assay: amyloid nucleation score (Sup35N fusion, yeast selection) (log enrichment); library NNK3; higher = more nucleation; inactive = no reads after selection
In short: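 Libraries of peptides of 20 random codons fused to Sup35N were expressed in psi-negative yeast and induced 24 hours with 100 μM copper sulfate. Selection was 7 days at 30°C on medium lacking adenine and uracil, and plasmid inserts were Illumina-sequenced before and after selection. Nucleation score is the DiMSum log enrichment of output over input reads, centred on the mode score of non-aggregating sequences, and sequences with under 100 input reads were left out.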

Row | Substance | amyloid nucleation score
1 | LLDNITLFVWNYMVSSEWKL | inactive
2 | LLECNRTMPQLMVWEVFCSV | inactive
3 | LLGLCRVLW | 1.31 ± 0.097
4 | LLIFYGKLMIWGSGHSDTFR | inactive
5 | LLKPTVRCKPRLK | inactive
6 | LLKSGYYKGGFVKGAIRFRE | inactive
7 | LLLGDVVVMTEAYYIMSPVP | inactive
8 | LLLIWWNLALNLKLFFELKV | inactive
9 | LLLPWCYFRRKMGRR | inactive
10 | LLMFTFHYSPFS | 0.483 ± 0.37
11 | LLMLCRCKPYFFGFYLCWFR | inactive
12 | LLPAI | inactive
13 | LLPDRFANPGETWVLNYKLM | inactive
14 | LLQICGVYYYPIVSYSPDDF | inactive
15 | LLRFP | inactive
16 | LLRSCYVSYALNGYSTTFRD | inactive
17 | LLRSQASTATGYH | inactive
18 | LLSFLTVRLCVFRTYFW | inactive
19 | LLVRMILNYKELLVTAILQV | inactive
20 | LLVVY | inactive
21 | LLWEWYFI | inactive
22 | LLWSCCRGRMYDNMFHGKVK | inactive
23 | LLYETLLIIMCGKCLQFYIV | inactive

Row | Substance | amyloid nucleation score
24 | LMFDVFLMSTFVFDNL | inactive
25 | LMGLCTLI | inactive
26 | LMLNGHAVHMSSNSEALVIC | inactive
27 | LMSVLRFQTP | inactive
28 | LMVSREFWCSLSKV | inactive
29 | LNCLRMSLLC | inactive
30 | LNCQYTFHAKCSFLHPSLL | 0.928 ± 0.21
31 | LNFTCEVGGVYEVDVNSCLL | inactive
32 | LNHRIWLTLFGSASRLVKFD | inactive
33 | LNIIVDGLAMDVYDEALGSN | inactive
34 | LNIQFFINLALAEGFLYNRK | 2.97 ± 0.084
35 | LNKLTKIVVSHKGLCFELGG | inactive
36 | LNLGIFV | inactive
37 | LNLQNVVYGTMSEHSASSVD | inactive
38 | LNQLGSCY | -0.019 ± 1.1
39 | LNQSDRCKVCWYWLGHT | inactive
40 | LNQYLYFVRDMGDVMFCLYF | inactive
41 | LNRVRSS | -0.108 ± 0.7
42 | LNSDIVVNLNIAWSYCIV | 1.39 ± 0.068
43 | LNSGIS | 0.103 ± 0.24
44 | LNSTVSGKFMLL | 0.078 ± 0.66
45 | LNTYQHFCIFMLSYALLSGH | -1.49 ± 2.5
46 | LNYGSDLDSIYYSFTL | -0.896 ± 0.96

Row | Substance | amyloid nucleation score
47 | LNYTEASYSLTGHTISISTV | -0.156 ± 1.5
48 | LPAHTL | inactive
49 | LPAWKKTAFYFRYHGPFVRS | inactive
50 | LPKCQLLLRRCRV | inactive
51 | LPSVDVRKTI | inactive
52 | LPTIQILRQNTVPIGVHHKF | inactive
53 | LQDMPGNGFPVWVDISFSSY | inactive
54 | LQGVFRMSQISG | inactive
55 | LQMYWIIV | inactive
56 | LQNVGD | inactive
57 | LQRYRPADMRVGASSSGNTK | 0.121 ± 1
58 | LQSCKATPRLCFEATLGRGV | -0.992 ± 2.5
59 | LQSEPVLSDTSMSGVVASYF | inactive
60 | LQYYLRPRFNLRLYGAIPPA | inactive
61 | LRCTVRSLAKFVFYRFKTGG | inactive
62 | LRFAYTFFWYVRFRVRICFN | inactive
63 | LRFMRSI | inactive
64 | LRFRAQNTYEGPYTVGPVWS | inactive
65 | LRFRLNSRVYTTHNIKVPSL | inactive
66 | LRGDGLMIVIVVWCIYGYLC | inactive
67 | LRGFMISSWDFFADGSDVRL | inactive
68 | LRGNECRPGVELPVTVSKFR | inactive
69 | LRGYLHWLCSECSVLVSAVA | inactive

Row | Substance | amyloid nucleation score
70 | LRHGSSEFNYGNFFLCLFEQ | 2.56 ± 0.075
71 | LRKGVRLLFSHHVIIK | inactive
72 | LRLNKLCEVFAPLTSVLAGT | inactive
73 | LRLQIEKTAKNMFEYKAG | inactive
74 | LRLVGLLMGNIFFELYGDLC | inactive
75 | LRNSHGDDNVIRLVNNCNSV | inactive
76 | LRPRYSAYILQSRR | inactive
77 | LRQNTYMLLSGNIVCRIVSF | inactive
78 | LRRLELIGLECNLTGSRAVP | inactive
79 | LRRMDQMANDLFAI | inactive
80 | LRRQTSHKS | inactive
81 | LRSLLNQVMSYSMYILYNSQ | inactive
82 | LRSVFSRYFGQVHEFSRQRY | inactive
83 | LRWFFVHPQWIRGCGLAMLS | inactive
84 | LRYNRDVTS | inactive
85 | LSAAFYDMETIGWISGSWVN | inactive
86 | LSCHETCLVISGLCMLMMRL | inactive
87 | LSEMANDHEHVYSYRKAHYM | -0.626 ± 0.8
88 | LSEWMSESGNFEFCVASLYR | inactive
89 | LSFFGSYSSSRLF | 1.43 ± 0.11
90 | LSGPMRYELCMRLGSGLNYE | inactive
91 | LSGSLTTISIITGGVDCD | inactive
92 | LSGSRTRSRFPDCLNCIS | inactive

Row | Substance | amyloid nucleation score
93 | LSKFFRWV | inactive
94 | LSKHEAGTCRLVNDRTHYKA | inactive
95 | LSLCRNKSIKWVFSLMEIL | inactive
96 | LSLKNFMSSFSSLWCGWSDD | 0.689 ± 0.29
97 | LSLWMGVEDFVLCGSVNTSR | inactive
98 | LSMCAVFDRYLWVGSGDITY | inactive
99 | LSMTGV | inactive
100 | LSNDYCLRWVFMFKVMIRCD | inactive
101 | LSNIICSCQLCWACPSLSVM | 2.47 ± 0.057
102 | LSNLRGYNH | inactive
103 | LSPWVSMILVKFKLHLYLRR | inactive
104 | LSSLYLCCYACPNMLLI | 1.58 ± 0.11
105 | LSSSGIMFCFFVDGLRSLV | inactive
106 | LSTIIHDFIGCCAVNAQLIG | inactive
107 | LSTQNRISASREMMDTDILG | 0.8 ± 0.13
108 | LSYGFLGDRYVLHGCLMYFP | inactive
109 | LSYGRGVTVLYVLWSYFISR | inactive
110 | LSYQDVWGSYGICEGSVWYS | inactive
111 | LTAVLLTPYSLFGFALWWFV | -0.487 ± 1.4
112 | LTEMVLPLVHHLKTWSFVQE | inactive
113 | LTFCVSMKCKIW | inactive
114 | LTINDLCGFVKWLRTNCNVS | inactive
115 | LTLITPPTRS | inactive

Row | Substance | amyloid nucleation score
116 | LTMVWDNIAMYMHWHMTTPI | inactive
117 | LTNCRHSWWEDTTYSMWEVQ | inactive
118 | LTRFRDIRFLINKNGACKEW | -0.213 ± 0.71
119 | LTSSEQDAITLTTCGISECA | inactive
120 | LTTICS | inactive
121 | LVADSDRMNVTLRFTVSYCS | inactive
122 | LVCFARVRKMEAEAFMKLVW | 0.64 ± 0.26
123 | LVDLSRSISKSPMQKYRF | inactive
124 | LVEIVLYWSRVWYWTRGSNV | inactive
125 | LVEVDDASNIDCEAAYCKWY | inactive
126 | LVFGLLLS | inactive
127 | LVFRIN | inactive
128 | LVFSNFYGYFRASC | inactive
129 | LVFYMFAFITFVIYMMLIFY | 0.163 ± 0.29
130 | LVICKNINKLISWLSDYSFA | inactive
131 | LVIWYLQSLYSPGINCQDLR | inactive
132 | LVLAVVMTFRLRIRLSNLSR | inactive
133 | LVLSVWKLKLSGLALIFWYG | inactive
134 | LVNGTFNFSDHAESESCSHS | inactive
135 | LVNLCRIRRVLECVRRRHRS | inactive
136 | LVRCSNTR | inactive
137 | LVRVGSSNYLVNQIRPNISA | inactive
138 | LVSEPFQMRSTGGIGLIAVY | inactive

Row | Substance | amyloid nucleation score
139 | LVSVGSDWDCLHFISGKFPG | inactive
140 | LVSWSIA | inactive
141 | LVTFCYLDGSILNGEALRG | inactive
142 | LVVCKLRV | inactive
143 | LVVTTPLRRGKDLDSMRYTC | inactive
144 | LVVVR | inactive
145 | LVYFFFRVYNGPRMGS | inactive
146 | LVYNLNRKRGCKGVPVLRYS | inactive
147 | LVYVLDCRAKLTNYLISTLY | inactive
148 | LWANNGSCFMCEYSHDGGKN | inactive
149 | LWASTVGVFVGRRSPYLMCW | inactive
150 | LWCCEYRNRAATMRVPDPEL | inactive
151 | LWIVLQVHSFDVRFAQGFHI | 0.613 ± 0.17
152 | LWLMVFWKINGNMLGCHPEM | inactive
153 | LWQNSDLSSSDEYGQRFGKR | -0.706 ± 1
154 | LWRLRAIWVNNVMAVRKFVG | -0.68 ± 1
155 | LWVRKDERGEYI | inactive
156 | LWYGKYFFIDKRQA | 0.359 ± 0.23
157 | LYAQNLV | inactive
158 | LYDCRRGNLVTSCWNKCCLP | inactive
